From the RNAGym collection of RNA variant scans (doi:10.7554/elife.80360)

B1: Hairpin Ribozyme (parent)
chain: GUCCUCUUUCACGUGCGCGUGAAAGAGAGAAGUGAACCAGAGAAACACACGUUGUGGUAUAUUACCUGGUA

Variants of: B1
Assay: self-cleavage, relative activity (ratio to wild type); higher = more cleavage; co-transcriptional
For GUCCUCUUUCACGUGCGCGUCAAAGAGAGAAGUGAACCAGAGAAACACACGUUGUAGUAUAUUACCUGGUA, the self-cleavage was 0.184. Work on GUCCUCUUUCACGUGCGCGUCAAAGAGAGAAGUGGACCAGAGAAACACACGUUGUGGUAUAUUACCUGGUA yielded a self-cleavage of 0.666. For GUCCUCUUUCACGUGCGCGUAAAAGAGAGAAGUGAACCAGAGAAACACACGUUGUGGUAUAUUACCUGGGA, the self-cleavage was 0.821. Variant GUCCUCUUUCACGUGCGCGUAAAAGAGAGAAGUGAACCAGAGAAACACACGUUGUGGUAUAUUACCUGGCA has a self-cleavage of 0.758. In the case of GUCCUCUUUCACGUGCGCGUCAAAGAGAGAAGGGAACCAGAGAAACACACGUUGUGGUAUAUUACCUGGUA, the self-cleavage is reported as 0.238. Variant GUCCUCUUUCACGUGCGCGUCAAAGAGAGAAGCGAACCAGAGAAACACACGUUGUGGUAUAUUACCUGGUA has a self-cleavage of 0.145. Work on GUCCUCUUUCACGUGCGCGUAAAAGAGAGAAGUGAACCAGAGAAACACACGUUGUGUUAUAUUACCUGGUA yielded a self-cleavage of 0.232. In the case of GUCCUCUUUCACGUGCGCGUCAAAGAGAGAAGUGAACCCGAGAAACACACGUUGUGGUAUAUUACCUGGUA, the self-cleavage is reported as 0.463. With GUCCUCUUUCACGUGCGCGUUAAAGUGAGAAGUGAACCAGAGAAACACACGUUGUGGUAUAUUACCUGGUA the self-cleavage was 0.561. GUCCUCUUUCACGUGCGCGUUAAAGGGAGAAGUGAACCAGAGAAACACACGUUGUGGUAUAUUACCUGGUA showed a self-cleavage of 0.708. Variant GUCCUCUUUCACGUGCGCGUCAAAGAUAGAAGUGAACCAGAGAAACACACGUUGUGGUAUAUUACCUGGUA has a self-cleavage of 0.2. Work on GUCCUCUUUCACGUGCGCGUCAAAGAGAGAAGUAAACCAGAGAAACACACGUUGUGGUAUAUUACCUGGUA yielded a self-cleavage of 1.02. In the case of GUCCUCUUUCACGUGCGCGUCAAAGAGAGAAGUGAACCAGAGAAACACCCGUUGUGGUAUAUUACCUGGUA, the self-cleavage is reported as 0.17. GUCCUCUUUCACGUGCGCGUCAAAGAGAGAAGUGAACCAGAGAAACACUCGUUGUGGUAUAUUACCUGGUA showed a self-cleavage of 0.293. Work on GUCCUCUUUCACGUGCGCGUCAAAGAGAGAAGUGAACCAGAGAAACACGCGUUGUGGUAUAUUACCUGGUA yielded a self-cleavage of 0.302. Variant GUCCUCUUUCACGUGCGCGUCAAAGAGAGAAGUGAACCAGAGAAACACACGUUGUGGUAUAUUACCUGGUU has a self-cleavage of 0.794. GUCCUCUUUCACGUGCGCGUCAAAGAGAGAAGUGAACCAGAGAAACACACGUUGUGGUAUAUUACCUGUUA gave a self-cleavage of 0.155. Variant GUCCUCUUUCACGUGCGCGUUAAGGAGAGAAGUGAACCAGAGAAACACACGUUGUGGUAUAUUACCUGGUA has a self-cleavage of 0.805. For GUCCUCUUUCACGUGCGCGUUAAAGAGCGAAGUGAACCAGAGAAACACACGUUGUGGUAUAUUACCUGGUA, the self-cleavage was 0.366. GUCCUCUUUCACGUGCGCGUUAAAGAGGGAAGUGAACCAGAGAAACACACGUUGUGGUAUAUUACCUGGUA gave a self-cleavage of 0.98. In the case of GUCCUCUUUCACGUGCGCGUCAAAGAGAGAAGUGAACCAGAGAAACACAUGUUGUGGUAUAUUACCUGGUA, the self-cleavage is reported as 0.256. Variant GUCCUCUUUCACGUGCGCGUCAAAGAGAGAAGUGAACCAGAGAAACACAAGUUGUGGUAUAUUACCUGGUA has a self-cleavage of 0.386. GUCCUCUUUCACGUGCGCGUCAAAGAGAGAAGUGAACCAGAGAAACACACUUUGUGGUAUAUUACCUGGUA gave a self-cleavage of 0.865. With GUCCUCUUUCACGUGCGCGUCAAAGAGAGAAGUGAACCAGAGAAACACACCUUGUGGUAUAUUACCUGGUA the self-cleavage was 0.803. In the case of GUCCUCUUUCACGUGCGCGUCAAAGAGAGACGUGAACCAGAGAAACACACGUUGUGGUAUAUUACCUGGUA, the self-cleavage is reported as 0.0833. With GUCCUCUUUCACGUGCGCGUCAAAGAGAGAUGUGAACCAGAGAAACACACGUUGUGGUAUAUUACCUGGUA the self-cleavage was 0.0322. Variant GUCCUCUUUCACGUGCGCGUAAAAGAGAGAAGUGAACCAGAGAAACACACGUUGUGGUAUAUUACCUGCUA has a self-cleavage of 0.246. For GUCCUCUUUCACGUGCGCGUAAAAGAGAGAAGUGAACCAGAGAAACACACGUUGUGGUAUAUUACCUGUUA, the self-cleavage was 0.197. For GUCCUCUUUCACGUGCGCGUCAAAGAGAGAAGUGAACCAGAGAAACACACGUUGUGGUAUAUUACCUGGUA, the self-cleavage was 0.812. With GUCCUCUUUCACGUGCGCGUUAAAGAGAGAAGUGAACCAGAGAAACACACGUUGUGGUAUAUUACCUGGUA the self-cleavage was 0.844. Variant GUCCUCUUUCACGUGCGCGUCAAAGAGAGAAGUGAACCAGAGAAACAAACGUUGUGGUAUAUUACCUGGUA has a self-cleavage of 0.0883. In the case of GUCCUCUUUCACGUGCGCGUCAAAGAGAGAAGUGAACCAGGGAAACACACGUUGUGGUAUAUUACCUGGUA, the self-cleavage is reported as 0.606. GUCCUCUUUCACGUGCGCGUCAAAGAGAGAAGUGAACCAAAGAAACACACGUUGUGGUAUAUUACCUGGUA gave a self-cleavage of 0.258. Variant GUCCUCUUUCACGUGCGCGUCAAAGAGAGAAGUGAACCAGAGAAACACACGUUGUGGUAUAUUACCUGGCA has a self-cleavage of 0.965. Work on GUCCUCUUUCACGUGCGCGUCAAAGAGAGAAGUGAACCAGAGAAACACACGUUGUGGUAUAUUACCUGGAA yielded a self-cleavage of 0.779. For GUCCUCUUUCACGUGCGCGUAAAAGAGAGAAGUGAACCAGAGAAACACACGUUGUGGUAUACUACCUGGUA, the self-cleavage was 0.199. GUCCUCUUUCACGUGCGCGUAAAAGAGAGAAGUGAACCAGAGAAACACACGUUGUGGUAUAAUACCUGGUA showed a self-cleavage of 0.135. GUCCUCUUUCACGUGCGCGUUAAAGAGAGAAGUGGACCAGAGAAACACACGUUGUGGUAUAUUACCUGGUA showed a self-cleavage of 0.757.
